The assay has as its target T1, HLA-A2 (class I MHC molecule) on TAP deficient T2 cells.
T1 construct: whole, on cells; Target of the T2 HLA-A2 stabilization assay; The assay text says only HLA-A2; also called HLA-A*0201
Put plainly: T2 HLA-A2 stabilization assay.

Source text: Many of the polypeptides that were processed in the assay were synthesized and tested for binding to the class I MHC molecule, HLA-A2, using the standard T2 HLA-A2 stabilization assay.

B1: HER-2/neu polypeptide p373-382 (SLAFLPESFD) (peptide)
peptide: SLAFLPESFD
notes: Synthetic peptide
Turning to B1, the binding result was “binds”.
